Assay results reported in paper PMC4815018, “Oligomerization as a strategy for cold adaptation: Structure and dynamics of the GH1 β-glucosidase from Exiguobacterium antarcticum B7” (Scientific Reports, 2016).

Tests used:
EaBglA = molecular target: T1, EaBglA (Exiguobacterium antarcticum, UniProt A0ABF7PFW8); experiment: colorimetric release of 4-nitrophenol at […] nm; format: biochemical; conditions: 0.5 mM pNPG, 20 nM enzyme, 40 mM sodium phosphate pH 7.0, 30 °C, 10 min; tetramer
T1 construct: gene bglA
T1 sequence (A0ABF7PFW8 entry or part of it): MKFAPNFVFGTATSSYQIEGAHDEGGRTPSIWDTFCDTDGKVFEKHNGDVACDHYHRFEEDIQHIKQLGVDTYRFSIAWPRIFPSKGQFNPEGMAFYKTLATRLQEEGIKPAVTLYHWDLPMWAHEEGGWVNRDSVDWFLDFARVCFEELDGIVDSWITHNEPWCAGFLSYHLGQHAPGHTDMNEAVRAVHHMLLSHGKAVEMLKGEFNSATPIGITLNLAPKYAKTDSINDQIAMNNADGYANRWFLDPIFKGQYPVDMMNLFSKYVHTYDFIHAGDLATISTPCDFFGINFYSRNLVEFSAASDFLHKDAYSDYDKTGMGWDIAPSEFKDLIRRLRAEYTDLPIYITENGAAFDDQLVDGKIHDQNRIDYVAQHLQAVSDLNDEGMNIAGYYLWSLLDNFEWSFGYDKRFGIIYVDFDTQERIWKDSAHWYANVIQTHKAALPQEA

[1] = molecular target: GH1 β-glucosidase from Exiguobacterium antarcticum B7 (Exiguobacterium antarcticum B7)
[2] = molecular target: GH1 β-glucosidase from Exiguobacterium antarcticum B7 (Exiguobacterium antarcticum B7); experiment: AUC; sedimentation velocity, 35,000 rpm, 20 °C, 0.2, 0.4 and 1 mg/mL in 20 mM sodium phosphate, 150 mM NaCl, pH 7.4
[3] = molecular target: GH1 β-glucosidase from Exiguobacterium antarcticum B7 (Exiguobacterium antarcticum B7); experiment: SEC; Superdex 75 16/60, 20 mM sodium phosphate, 150 mM NaCl, pH 7.5, 0.5 mL/min; two peaks (tetramers and monomers); samples at 4 mg/mL
[4] = molecular target: GH1 β-glucosidase from Exiguobacterium antarcticum B7 (Exiguobacterium antarcticum B7); experiment: SAXS; 1 and 2 mg/mL in 20 mM sodium phosphate, 150 mM NaCl, pH 7.4, 20 °C; experimental curve and ab initio model compared with the crystallographic tetramer
[5] = molecular target: GH1 β-glucosidase from Exiguobacterium antarcticum B7 (Exiguobacterium antarcticum B7); experiment: crystal structure; two crystal forms, P2(1) (0.1 M TRIS pH 8.5, 2% PEG400, 1.45 M lithium sulfate) and C222(1) (0.1 M CAPS pH 10.5, 0.2 M lithium sulfate, 2 M ammonium sulfate, in situ proteolysis with trypsin); 18 °C, protein at 15 mg/mL

Compound	relative activity (%) (EaBglA)	relative enzyme activity on pNPG (30 °C, pH 7.0, 20 nM enzyme) of the monomer fraction against the tetramer fraction [1]	stoichiometry N [2]	stoichiometry N [3]	stoichiometry N [4]	stoichiometry N [5]
O=[N+]([O-])c1ccc(O[C@@H]2O[C@H](CO)[C@@H](O)[C@H](O)[C@H]2O)cc1 [4-nitrophenyl β-D-glucopyranoside]	Enzyme activity was measured using the colorimetric substrate 4-nitrophenyl β-D-glucopyranoside (pNPG	–	–	–	–	–
GH1 β-glucosidase from Exiguobacterium antarcticum B7 (enzyme)	–	10 fold	4	4	4	4
